B1: CRYL1 (parent)
chain: RNALENIRKEMKLLEQAGSLKGSL

Variants of: B1
Test: protein stability index of a GFP-peptide fusion (GPS, HEK-293T) (PSI 1-6); higher = more stable
Settings: c terminus: a fixed tail appended
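Note: lentivirally expressed fusions sorted by FACS into six bins by GFP to DsRed ratio, PSI derived from sequencing read proportions per bin multiplied by bin number.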

Row | Variant | protein stability index
1 | RNALENIRKEMKLLPQAGSLKGSL [E15P] | 3.37
2 | RNALENIRKEMKLLGQAGSLKGSL [E15G] | 3.05
3 | RNALENIRKEMKLLIQAGSLKGSL [E15I] | 1.71
4 | RNALENIRKEMKLLDQAGSLKGSL [E15D] | 3.63
5 | RNALENIRKEMKLLRQAGSLKGSL [E15R] | 3.63
6 | RNALENIRKEMKLLHQAGSLKGSL [E15H] | 2.77
7 | RNALENIRKEMKLLFQAGSLKGSL [E15F] | 2.9
8 | RNALENIRKEMFLLEQAGSLKGSL [K12F] | 2.39
9 | RNALENIRKEMTLLEQAGSLKGSL [K12T] | 3.54
10 | RNALENIRKEMHLLEQAGSLKGSL [K12H] | 3.46
11 | RNALENIRKEMMLLEQAGSLKGSL [K12M] | 2.89
12 | RNALENIRKEMPLLEQAGSLKGSL [K12P] | 4.57
13 | RNALENIRKEMWLLEQAGSLKGSL [K12W] | 1.72
14 | RNALENIRKEMCLLEQAGSLKGSL [K12C] | 3.43
15 | RNALENIRKEMYLLEQAGSLKGSL [K12Y] | 3.75
16 | RNALENIRKEMRLLEQAGSLKGSL [K12R] | 3.06
17 | RNALENIRKEMNLLEQAGSLKGSL [K12N] | 3.36
18 | RNALENIRKEMLLLEQAGSLKGSL [K12L] | 3.55
19 | RNALENIRKEMSLLEQAGSLKGSL [K12S] | 3.53
20 | RNALENIRKEMELLEQAGSLKGSL [K12E] | 3.38
21 | RNALENIRKEMQLLEQAGSLKGSL [K12Q] | 3.31
22 | RNALENIRKEMDLLEQAGSLKGSL [K12D] | 4.23
23 | RNALENIRKEMILLEQAGSLKGSL [K12I] | 3.46
24 | RNALENIRKEMALLEQAGSLKGSL [K12A] | 3.46

Row | Variant | protein stability index
25 | RNALENIRKEMKLLEQAFSLKGSL [G18F] | 2.13
26 | RNALENIRKEMKLLEQANSLKGSL [G18N] | 3.84
27 | RNALENIRKEMKLLEQASSLKGSL [G18S] | 3.41
28 | RNALENIRKEMKLLEQAASLKGSL [G18A] | 4
29 | RNALENIRKEMKLLEQAWSLKGSL [G18W] | 2.37
30 | RNALENIRKEMKLLEQAMSLKGSL [G18M] | 2.12
31 | RNALENIRKEMKLLEQAYSLKGSL [G18Y] | 2.12
32 | RNALENIRKEMKLLEQAVSLKGSL [G18V] | 2.8
33 | RNALENIRKEMKLLEQAESLKGSL [G18E] | 3.58
34 | RNALENIRKEMKLLEQAKSLKGSL [G18K] | 3.52
35 | RNALENIRKEMKLLEQAHSLKGSL [G18H] | 3.08
36 | RNALENIRKEMKLLEQAQSLKGSL [G18Q] | 3.48
37 | RNALENIRKEMKLLEQAPSLKGSL [G18P] | 4.33
38 | RNALENIRKEMKLLEQALSLKGSL [G18L] | 1.83
39 | RNALENIRKEMKLLEQARSLKGSL [G18R] | 3.23
40 | RNALENIRKEMKLLEQATSLKGSL [G18T] | 3.39
41 | RNALENIRKEMKLLEQADSLKGSL [G18D] | 3.64
42 | RNALENIRKEMKLLEQAISLKGSL [G18I] | 1.98
43 | RNALENIRKEMKLDEQAGSLKGSL [L14D] | 4.36
44 | RNALENIRKEMKLQEQAGSLKGSL [L14Q] | 4.18
45 | RNALENIRKEMKLAEQAGSLKGSL [L14A] | 3.77
46 | RNALENIRKEMKLREQAGSLKGSL [L14R] | 3.93
47 | RNALENIRKEMKLKEQAGSLKGSL [L14K] | 4.03
48 | RNALENIRKEMKLEEQAGSLKGSL [L14E] | 4.88

Row | Variant | protein stability index
49 | RNALENIRKEMKLWEQAGSLKGSL [L14W] | 3.17
50 | RNALENIRKEMKLTEQAGSLKGSL [L14T] | 3.79
51 | RNALENIRKEMKLPEQAGSLKGSL [L14P] | 3.93
52 | RNALENIRKEMKLSEQAGSLKGSL [L14S] | 3.77
53 | RNALENIRKEMKLVEQAGSLKGSL [L14V] | 3.85
54 | RNALENIRKEMKLMEQAGSLKGSL [L14M] | 2.68
55 | RNALENIRKEMKLYEQAGSLKGSL [L14Y] | 3.86
56 | RNALENIRKEMKLCEQAGSLKGSL [L14C] | 3.39
57 | RNALENIRKEMKLFEQAGSLKGSL [L14F] | 3.19
58 | RNALENIRKEMKLNEQAGSLKGSL [L14N] | 4.11
59 | RNALENIRKEMKLIEQAGSLKGSL [L14I] | 3.47
60 | RNALENIRKEMKLLEQAGWLKGSL [S19W] | 2.03
61 | RNALENIRKEMKLLEQAGPLKGSL [S19P] | 3.54
62 | RNALENIRKEMKLLEQAGDLKGSL [S19D] | 3.71
63 | RNALENIRKEMKLLEQAGHLKGSL [S19H] | 3.04
64 | RNALENIRKEMKLLEQAGLLKGSL [S19L] | 2.36
65 | RNALENIRKEMKLLEQAGYLKGSL [S19Y] | 2.17
66 | RNALENIRKEMKLLEQAGFLKGSL [S19F] | 1.9
67 | RNALENIRKEMKLLEQAGQLKGSL [S19Q] | 2.85
68 | RNALENIRKEMKLLEQAGELKGSL [S19E] | 4.14
69 | RNALENIRKEMKLLEQAGMLKGSL [S19M] | 2.56
70 | RNALENIRKEMKLLEQAGKLKGSL [S19K] | 3.42
71 | RNALENIRKEMKLLEQAGILKGSL [S19I] | 2.62
72 | RNALENIRKEMKLLEQAGGLKGSL [S19G] | 3.12

Row | Variant | protein stability index
73 | RNALENIRKEMKLLEQAGVLKGSL [S19V] | 2.66
74 | RNALENIRKEMKLLEQAGTLKGSL [S19T] | 3.22
75 | RNALENIRKEMKLLEQAGRLKGSL [S19R] | 3.08
76 | RNALENIRKEMKLLEQAGALKGSL [S19A] | 2.51
77 | RNALENIRKEMKLLEQAGNLKGSL [S19N] | 3.66
78 | RNALENIRKEMKLLEQAGSMKGSL [L20M] | 2.84
79 | RNALENIRKEMKLLEQAGSDKGSL [L20D] | 4.16
80 | RNALENIRKEMKLLEQAGSEKGSL [L20E] | 4.79
81 | RNALENIRKEMKLLEQAGSQKGSL [L20Q] | 4.71
82 | RNALENIRKEMKLLEQAGSYKGSL [L20Y] | 3.9
83 | RNALENIRKEMKLLEQAGSWKGSL [L20W] | 2.9
84 | RNALENIRKEMKLLEQAGSVKGSL [L20V] | 4.17
85 | RNALENIRKEMKLLEQAGSNKGSL [L20N] | 4.28
86 | RNALENIRKEMKLLEQAGSPKGSL [L20P] | 4.09
87 | RNALENIRKEMKLLEQAGSSKGSL [L20S] | 3.98
88 | RNALENIRKEMKLLEQAGSGKGSL [L20G] | 4.08
89 | RNALENIRKEMKLLEQAGSFKGSL [L20F] | 2.86
90 | RNALENIRKEMKLLEQAGSCKGSL [L20C] | 3.65
91 | RNALENIRKEMKLLEQAGSKKGSL [L20K] | 4.55
92 | RNALENIRKEMKLLEQAGSTKGSL [L20T] | 3.56
93 | RNALENIRKEMKLLEQAGSRKGSL [L20R] | 4.17
94 | RNALENIRKEMKLLEQAGSHKGSL [L20H] | 3.99

Source: the supplement of paper PMC10567573
